Bridges are numbered along the chain shown (N, C = ends).

For orientation: Kd means the constant that tells how readily two partners part at equilibrium. What is called koff is the rate constant with which the complex falls apart. For orientation: kon means a measure of how fast the partners come together. Lower therefore signals slow association.

Assay [1] addresses CD58 (Homo sapiens) (UniProt P19256). The settings on record: cited from earlier work.
Assay [2] addresses T1, CD58 protein (purified cell-adhesion domain, domain 1) (UniProt P19256 29-215).
T1 sequence (looked up): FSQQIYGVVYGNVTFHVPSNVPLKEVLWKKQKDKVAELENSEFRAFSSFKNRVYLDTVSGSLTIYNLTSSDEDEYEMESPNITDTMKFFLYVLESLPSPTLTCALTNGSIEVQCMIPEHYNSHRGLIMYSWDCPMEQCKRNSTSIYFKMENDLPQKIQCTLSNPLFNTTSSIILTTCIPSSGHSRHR
The assay can be described thus: SPR. (In general: SPR reads the build-up and loss of mass on a sensor chip optically.)

On to CD2 (from UniProt P06729), for which the equilibrium dissociation constant (Kd) in assay [1] was 10 µM.

B1: SFTI-a (peptide)
peptide: cyclo(CKASAPPSCYDGDD)
modifications: disulfide 1-9
SMILES: C[C@@H]1NC(=O)[C@H](CCCCN)NC(=O)[C@@H]2CSSC[C@H](NC(=O)[C@H](CO)NC(=O)[C@@H]3CCCN3C(=O)[C@@H]3CCCN3C(=O)[C@H](C)NC(=O)[C@H](CO)NC1=O)C(=O)N[C@@H](Cc1ccc(O)cc1)C(=O)N[C@@H](CC(=O)O)C(=O)NCC(=O)N[C@@H](CC(=O)O)C(=O)N[C@@H](CC(=O)O)C(=O)N2
In assay [2], B1 gave an off-rate constant (koff) of 0.00329 s⁻¹ and a kon of 224 M⁻¹ s⁻¹.

cyclo(CTKSIPPICFPDGR) (disulfide 1-9 (inferred)) [sunflower trypsin inhibitor SFTI-1] yielded a Kd in assay [2] greater than 500 µM.

The values above are taken from publication PMC5091667 (ACS chemical biology, 2016).
